Results from PMC6447619, “New type of interaction between the SARAH domain of the tumour suppressor RASSF1A and its mitotic kinase Aurora A” (Scientific Reports, 2019).
Each block holds one binder with its values, some of them ahead of it.

What was measured:
[1] = molecular target: T1, Aurora A kinase domain (residues 107–403) (human) (UniProt O14965)
T1 sequence: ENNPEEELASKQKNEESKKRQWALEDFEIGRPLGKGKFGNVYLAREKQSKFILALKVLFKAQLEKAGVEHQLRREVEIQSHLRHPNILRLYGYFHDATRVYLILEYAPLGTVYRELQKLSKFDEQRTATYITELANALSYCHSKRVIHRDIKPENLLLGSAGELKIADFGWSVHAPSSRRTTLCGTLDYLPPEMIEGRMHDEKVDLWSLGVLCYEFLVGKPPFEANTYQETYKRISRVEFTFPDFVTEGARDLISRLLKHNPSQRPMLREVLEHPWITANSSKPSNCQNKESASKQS

[2] = molecular target: the molecule itself; test: SEC; analytical gel filtration on Superose 6 10/300 GL, 100 μl of dilution series injected (RBD 1.5-17.5 μM, ∆N 4.5-35 μM, SARAH 1.5-80 μM), 25 mM HEPES pH 7.4, 300 mM NaCl; MBP-tagged constructs; dimer to monomers
[3] = molecular target: T2, Aurora A kinase domain (residues 107–403) (human, UniProt O14965 107-403); test: SPR; Biacore X; Aurora A kinase domain immobilised on a CM5 chip, RASSF1A variants as analytes; HBS-EP (10 mM HEPES pH 7.4, 150 mM NaCl, 3 mM EDTA, 0.005% Tween-20), 25 °C; equilibria not reached because of irreversible aggregation on the surface; details: both partners purified
T2 construct: Aurora A kinase, human, kinase domain only, residues 107-403
T2 sequence (looked up): T1 sequence

- Km of phosphorylation of ∆N-∆loop by Aurora A kinase domain (40 nM), 32P incorporation [1]: 10 µM
B1: RASSF1A ∆N-∆loop (residues 121–340 lacking the loop 177–197) (domain or fragment)
chain: EPVEWETPDLSQAEIEQKIKEYNAQINSNLFMSLNKDGSYTGFIKVQLKLVRPVSVVRRRTSFYLPKDAVKHLHVLSRTRAREVIEALLRKFLVVDDPRKFALFERAERHGQVYLRKLLDDEQPLRLRLLAGPSDKALSFVLKENDSGEVNWDAFSMPELHNFLRILQREEEEHLRQILQKYSYCRQKIQEALHACPLG

- binding result [3]: binds
B2: SARAH domain of RASSF1A (residues 291–340) (domain or fragment, UniProt Q9NS23-2 291-340, looked up)
chain: VNWDAFSMPELHNFLRILQREEEEHLRQILQKYSYCRQKIQEALHACPLG
notes: Ras-association domain family 1 isoform A (RASSF1A), residues 291-340 (SARAH domain); numbers count on: isoform A; 51 kDa with the MBP tag; Monomer-dimer equilibrium by SEC; also called isolated SARAH domain; SARAH domain construct; not shown: MBP, N-terminal, kept
- stoichiometry N [2]: 2

B3: RASSF1A ∆N (residues 121–340) (domain or fragment, UniProt Q9NS23-2 121-340, looked up)
chain: EPVEWETPDLSQAEIEQKIKEYNAQINSNLFMSLNKDGSYTGFIKVQLKLVRPVSVPSSKKPPSLQDARRGPGRGTSVRRRTSFYLPKDAVKHLHVLSRTRAREVIEALLRKFLVVDDPRKFALFERAERHGQVYLRKLLDDEQPLRLRLLAGPSDKALSFVLKENDSGEVNWDAFSMPELHNFLRILQREEEEHLRQILQKYSYCRQKIQEALHACPLG
notes: Ras-association domain family 1 isoform A (RASSF1A), 340 residues, residues 121-340 (RBD plus SARAH domain); numbers count on: isoform A; 69 kDa with the MBP tag; Monomer-dimer equilibrium by SEC; also called ΔN; ΔN fragment; not shown: MBP, N-terminal, kept
- stoichiometry N [2]: 2
